Measured values as given in patent CN101407544A.

Tests used:
[1] = biological target: T1, GP73 in human prostatic hyperplasia tissue sections (前列腺增生组织石蜡切片中的GP73) (human) (UniProt Q8NBJ4); test: immunohistochemistry on paraffin sections
T1 sequence (looked up): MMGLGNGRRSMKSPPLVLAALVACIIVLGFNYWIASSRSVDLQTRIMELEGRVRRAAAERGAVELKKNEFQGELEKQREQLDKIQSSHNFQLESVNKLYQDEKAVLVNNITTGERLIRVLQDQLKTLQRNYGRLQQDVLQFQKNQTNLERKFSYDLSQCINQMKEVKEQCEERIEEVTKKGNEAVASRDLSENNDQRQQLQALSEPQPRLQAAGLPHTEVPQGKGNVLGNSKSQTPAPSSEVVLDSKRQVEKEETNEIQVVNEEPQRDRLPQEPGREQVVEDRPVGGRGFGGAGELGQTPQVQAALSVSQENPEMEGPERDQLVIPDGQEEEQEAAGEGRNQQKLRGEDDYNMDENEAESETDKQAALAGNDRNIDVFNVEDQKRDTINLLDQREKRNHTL

[2] = biological target: T2, 重组人GP73蛋白 His-GP73 (recombinant human Golgi protein 73 fragment with His tag, expressed in E. coli from pET-28-a(+)) (human) (UniProt Q8NBJ4); test: double antibody sandwich ELISA: 6A2 (1 μg/ml) capture, His-GP73 standard, rabbit anti-GP73 serum (1:1000) detection
T2 sequence (looked up): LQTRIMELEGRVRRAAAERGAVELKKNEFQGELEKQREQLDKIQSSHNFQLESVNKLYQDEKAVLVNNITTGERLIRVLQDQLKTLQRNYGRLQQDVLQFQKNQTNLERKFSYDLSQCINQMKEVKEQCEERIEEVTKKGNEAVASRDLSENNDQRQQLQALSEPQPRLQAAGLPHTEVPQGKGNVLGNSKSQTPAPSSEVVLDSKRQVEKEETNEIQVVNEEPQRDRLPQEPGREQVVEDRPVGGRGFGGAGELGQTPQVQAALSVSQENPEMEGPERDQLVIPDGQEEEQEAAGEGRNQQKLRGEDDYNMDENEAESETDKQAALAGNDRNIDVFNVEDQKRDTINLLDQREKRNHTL

效价 (titer in immunohistochemistry) (titer (1:x dilution)) [1]: 1000
最低检测限 (lowest detection limit of the sandwich ELISA) [2]: 0.25 ng/mL
B1: 抗GP73单克隆抗体6A2 (anti-GP73 mAb) (antibody, part only; not given: light chain variable region, V domains shown, part only)
VH: DFNIKDTYMHWMKQRPEQGLEWIGRIDPANGNTKYDPKFQGKATITTDTSSNTAYLQLSSLTSEDTAVYYCAREDYGNLWYFDV
